Biological target: Mature human mitochondrial heat shock protein family D member 1 (HSPD1) (human), P10809
Assay: cryo-EM structure
Conditions: remark: other sources report otherwise

B1: Mature human mitochondrial heat shock protein family D member 1 (HSPD1), P10809 27-573 (natural protein)
chain: AKDVKFGADARALMLQGVDLLADAVAVTMGPKGRTVIIEQSWGSPKVTKDGVTVAKSIDLKDKYKNIGAKLVQDVANNTNEEAGDGTTTATVLARSIAKEGFEKISKGANPVEIRRGVMLAVDAVIAELKKQSKPVTTPEEIAQVATISANGDKEIGNIISDAMKKVGRKGVITVKDGKTLNDELEIIEGMKFDRGYISPYFINTSKGQKCEFQDAYVLLSEKKISSIQSIVPALEIANAHRKPLVIIAEDVDGEALSTLVLNRLKVGLQVVAVKAPGFGDNRKNQLKDMAIATGGAVFGEEGLTLNLEDVQPHDLGKVGEVIVTKDDAMLLKGKGDKAQIEKRIQEIIEQLDVTTSEYEKEKLNERLAKLSDGVAVLKVGGTSDVEVNEKKDRVTDALNATRAAVEEGIVLGGGCALLRCIPALDSLTPANEDQKIGIEIIKRTLKIPAMTIAKNAGVEGSLIVEKIMQSSSEVGYDAMAGDFVNMVEKGIIDPTKVVRTALLDAAGVASLLTTAEVVVTEIPKEEKDPGMGAMGGMGGGMGGGMF
stoichiometry N: 7
